Our source for the half-maximal activation (EC50) of HA-tagged PSKH1 (10 ng) kinase activity, titration of CaM 0-1,000 nM, radiometric assay and radiometric kinase assay (ADR1 peptide phosphorylation) of HA-tagged PSKH1 (10 ng) with Ca2+-CaM (1 uM) values is article PMC11873932.

The target in this experiment is Protein Serine Kinase H1 (PSKH1), recombinant full-length, wild type (human) (UniProt P11801).
Chain of Protein Serine Kinase H1 (PSKH1), recombinant full-length, wild type (human) (P11801 whole entry): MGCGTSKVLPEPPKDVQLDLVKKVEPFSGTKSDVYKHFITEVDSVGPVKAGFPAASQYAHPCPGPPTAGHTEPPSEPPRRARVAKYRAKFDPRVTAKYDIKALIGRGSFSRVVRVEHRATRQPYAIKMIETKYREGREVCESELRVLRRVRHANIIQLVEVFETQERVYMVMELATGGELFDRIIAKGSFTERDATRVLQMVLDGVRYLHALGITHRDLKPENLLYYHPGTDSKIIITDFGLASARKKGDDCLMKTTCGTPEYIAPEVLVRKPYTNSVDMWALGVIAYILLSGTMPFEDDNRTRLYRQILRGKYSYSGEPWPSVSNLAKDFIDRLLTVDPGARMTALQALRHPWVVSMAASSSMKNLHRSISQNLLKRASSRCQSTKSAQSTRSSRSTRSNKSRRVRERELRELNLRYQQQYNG

“Calmodulin, recombinant (His6-Calmodulin) (from UniProt P0DP23 1-149) (natural protein)”: the half-maximal activation (EC50) of HA-tagged PSKH1 (10 ng) kinase activity, titration of CaM 0-1,000 nM, radiometric assay came out at 58.7 nM and the radiometric kinase assay (ADR1 peptide phosphorylation) of HA-tagged PSKH1 (10 ng) with Ca2+-CaM (1 uM) is 10 fold.
